Assay results: the supplement of paper PMC9112550, “Optimization of the antimicrobial peptide Bac7 by deep mutational scanning” (BMC Biology, 2022)

Tested on: Escherichia coli TOP10
Assay: shrunken log2 fold change of peptide-encoding DNA abundance (4.5 h post-induction vs induction); higher = less antimicrobial activity (less host growth inhibition)
Details: time post-induction: 4.5 h; library: site-saturation at positions 5, 18, 19, 20
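Note: peptides expressed intracellularly from a pBAD plasmid library in pooled LB shake-flask culture, induced with 0.3% L-arabinose, DNA abundance read by NGS, three biological replicates, DESeq2 with apeglm shrinkage.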

Sequence	shrunken log2 fold change
RRIRKRPPRLPRPRPRPWIMPRP	-0.132
RRIRPRPPRLPRPRPRPHEEPRP	-0.000777
RRIRCRPPRLPRPRPRPRNRPRP	0.239
RRIRFRPPRLPRPRPRPNCGPRP	-0.0249
RRIRIRPPRLPRPRPRPRCCPRP	-0.181
RRIRWRPPRLPRPRPRPWSWPRP	1.16
RRIRQRPPRLPRPRPRPASTPRP	-0.0855
RRIRRRPPRLPRPRPRPKENPRP	0.325
RRIRLRPPRLPRPRPRPEVAPRP	0.475
RRIRCRPPRLPRPRPRPQNYPRP	-0.485
RRIRPRPPRLPRPRPRPMDCPRP	-0.00833
RRIRNRPPRLPRPRPRPSGWPRP	-0.137
RRIRMRPPRLPRPRPRPAKMPRP	0.134
RRIRARPPRLPRPRPRPEKRPRP	0.128
RRIRPRPPRLPRPRPRPNTYPRP	-0.67
RRIRSRPPRLPRPRPRPACPPRP	0.413
RRIRIRPPRLPRPRPRPWGLPRP	-0.192
RRIRKRPPRLPRPRPRPHGQPRP	-0.0371
RRIRRRPPRLPRPRPRPWTKPRP	0.124
RRIRCRPPRLPRPRPRPVEMPRP	0.0203
RRIRVRPPRLPRPRPRPQCIPRP	0.101
RRIRNRPPRLPRPRPRPWDFPRP	-0.00226

Sequence	shrunken log2 fold change
RRIRARPPRLPRPRPRPEEGPRP	0.457
RRIRSRPPRLPRPRPRPWILPRP	-0.0844
RRIRQRPPRLPRPRPRPMGRPRP	-0.00151
RRIRDRPPRLPRPRPRPMIQPRP	-0.103
RRIRPRPPRLPRPRPRPVNTPRP	-0.634
RRIRKRPPRLPRPRPRPRCKPRP	0.00437
RRIRWRPPRLPRPRPRPLCDPRP	-0.0525
RRIRGRPPRLPRPRPRPYLIPRP	-0.0775
RRIRERPPRLPRPRPRPEMEPRP	-0.0231
RRIRGRPPRLPRPRPRPMMLPRP	0.158
RRIRNRPPRLPRPRPRPRASPRP	0.211
RRIRDRPPRLPRPRPRPWHKPRP	-0.11
RRIRQRPPRLPRPRPRPYANPRP	-0.264
RRIRMRPPRLPRPRPRPQYTPRP	-0.0579
RRIRSRPPRLPRPRPRPCFYPRP	-0.39
RRIRPRPPRLPRPRPRPYQGPRP	-0.0345
RRIRYRPPRLPRPRPRPRQVPRP	-0.206
RRIRRRPPRLPRPRPRPLDTPRP	0.168
RRIRVRPPRLPRPRPRPGSYPRP	-0.186
RRIRKRPPRLPRPRPRPSERPRP	0.317
RRIRERPPRLPRPRPRPSRFPRP	0.17
RRIRYRPPRLPRPRPRPHWRPRP	-0.0836

Sequence	shrunken log2 fold change
RRIRCRPPRLPRPRPRPTMTPRP	0.106
RRIRTRPPRLPRPRPRPYSQPRP	-0.0274
RRIRLRPPRLPRPRPRPGGKPRP	-0.00333
RRIRKRPPRLPRPRPRPALMPRP	0.32
RRIRVRPPRLPRPRPRPVNFPRP	0.02
RRIRFRPPRLPRPRPRPAHVPRP	-0.0462
RRIRVRPPRLPRPRPRPSMLPRP	-0.395
RRIRERPPRLPRPRPRPVPNPRP	-0.14
RRIRWRPPRLPRPRPRPWYNPRP	-0.119
RRIRQRPPRLPRPRPRPRTQPRP	0.0198
RRIRVRPPRLPRPRPRPAMMPRP	0.464
RRIRGRPPRLPRPRPRPGYLPRP	0.0499
RRIRLRPPRLPRPRPRPHWCPRP	-0.0751
RRIRERPPRLPRPRPRPYQLPRP	-0.0108
RRIRYRPPRLPRPRPRPEWSPRP	-0.0724
RRIRIRPPRLPRPRPRPTMHPRP	-0.443
RRIRRRPPRLPRPRPRPEADPRP	0.774
RRIRARPPRLPRPRPRPNVRPRP	0.0345
RRIRNRPPRLPRPRPRPYYAPRP	-0.0919
RRIRFRPPRLPRPRPRPYQSPRP	-0.00405
RRIRERPPRLPRPRPRPQMFPRP	0.0221
RRIRGRPPRLPRPRPRPNNEPRP	0.306

Sequence	shrunken log2 fold change
RRIRGRPPRLPRPRPRPYPIPRP	3.7
RRIRFRPPRLPRPRPRPSNAPRP	-0.165
RRIRNRPPRLPRPRPRPQWIPRP	-0.446
RRIRNRPPRLPRPRPRPSPTPRP	0.156
RRIRRRPPRLPRPRPRPPVFPRP	0.55
RRIRVRPPRLPRPRPRPYFTPRP	-0.689
RRIRSRPPRLPRPRPRPSSDPRP	-0.107
RRIRIRPPRLPRPRPRPYVFPRP	-0.0874
RRIRFRPPRLPRPRPRPQFCPRP	-0.0625
RRIRIRPPRLPRPRPRPVCRPRP	1.56
RRIRFRPPRLPRPRPRPIESPRP	-0.15
RRIRWRPPRLPRPRPRPGYAPRP	0.38
RRIRVRPPRLPRPRPRPQVHPRP	-0.14
RRIRLRPPRLPRPRPRPTEMPRP	0.037
RRIRQRPPRLPRPRPRPIKIPRP	-0.0595
RRIRRRPPRLPRPRPRPSYVPRP	-0.0434
RRIRARPPRLPRPRPRPLTKPRP	0.339
RRIRWRPPRLPRPRPRPFPSPRP	-0.1
RRIRPRPPRLPRPRPRPVIGPRP	0.0389
RRIRKRPPRLPRPRPRPNVDPRP	0.17
RRIRDRPPRLPRPRPRPHALPRP	-0.225
RRIRRRPPRLPRPRPRPNAKPRP	0.0165

Sequence	shrunken log2 fold change
RRIRPRPPRLPRPRPRPKTRPRP	0.382
RRIRDRPPRLPRPRPRPWHEPRP	-0.266
RRIRERPPRLPRPRPRPLYPPRP	-0.458
RRIRDRPPRLPRPRPRPHGRPRP	0.0088
RRIRERPPRLPRPRPRPETWPRP	-0.0594
RRIRFRPPRLPRPRPRPRHDPRP	0.0736
RRIRLRPPRLPRPRPRPCADPRP	0.151
RRIRFRPPRLPRPRPRPRWVPRP	0.191
RRIRPRPPRLPRPRPRPDERPRP	-0.0865
RRIRHRPPRLPRPRPRPIQRPRP	-0.204
RRIRRRPPRLPRPRPRPGFGPRP	0.497
RRIRFRPPRLPRPRPRPPQNPRP	0.536
RRIRERPPRLPRPRPRPLEWPRP	-0.0018
RRIRWRPPRLPRPRPRPTTAPRP	0.432
RRIRDRPPRLPRPRPRPFEVPRP	-0.0211
RRIRRRPPRLPRPRPRPRVQPRP	0.445
RRIRVRPPRLPRPRPRPCFEPRP	-0.0173
RRIRYRPPRLPRPRPRPHLFPRP	-0.313
RRIRMRPPRLPRPRPRPYKGPRP	-0.046
RRIRLRPPRLPRPRPRPCFFPRP	-0.13
RRIRRRPPRLPRPRPRPLKWPRP	-0.107
